Results reported in patent US20240003880A1 (published 2024).

Biological target: SARS-CoV-2 nucleocapsid phosphoprotein (SARS-CoV-2, UniProt P0DTC9 1-419)
Test: SPR

Row | Binder | Kd [pM]
1 | antibody 9-24 (antibody, V domains shown) VH: EVQLVESGGGLVQPGGSLRLSCAASGFTFSDSAVHWVRQASGKGLEWVGRIRNRNNNYATAYAASVKGRFTISRDDSENMAYLQMNGLKTEDTAIYYCTDLLAYWGQGTLLTVSS VL: SYELTQPPSVSVSPGQTARITCSADALPKQYAYWYQQKAGQAPVLVIYKDNERPSGIPERFSGSSSGTTVTLTISGVQAEDEADYYCQSADSSGGYRVFGGGTKLTVL | 2360
2 | antibody 9-11 (antibody, V domains shown) VH: QVQLVQSGAEVKKPGASVKVSCKASGYTFTSYAISWVRQAPGQGLEWMGWISAYTGNTNYAQKLQGRVTMTTDTSTSTAYMELRSLRSDDTAVYYCARNGWDYDTSGTHDYWGQGTLVTVSS VL: not shown | 80
3 | antibody 9-17 (antibody, V domains shown) VH: QVQLVQSGAEVKKPGSSVKVSCKASGGTFSNYVISWVRQAPGQGLEWMGGIIPIFGTAKYAQKFQGRVAITADESTSTAYMEVSSLRSEDTAVYYCARAGYCSGGSCRRPSDYYGMDVWGQGTTVTVSS VL: not shown | 180
4 | antibody 9-15 (antibody, V domains shown) VH: QVQLVQSGAEVKKPGSSVKVSCKASGGTFSSYAISWVRQAPGQGLEWMGGIIPIFGTANYAQKFQGRVTITAEESTSTAYMELSSLRSEDTAVYYCARDGWAAAGPDTSLLGTFDIWGQGTMVTVSS VL: QSALTQPPSVSGSPGQSVTISCTGTSSDVGSYNRVSWYQQPPGTAPKLIIYEVSNRPSGVPDRFSGSKSGNTASLTISGLQAEDEADYYCSSYTSSSTYVVFGGGTKLTVL | 100
